In US8574569B2, “Stabilized protease composition” (Trobio AB, priority 2005, dated 2013):

T1: trypsin (Bos taurus, UniProt P00760)
T1 construct: 100 μg/ml of trypsin (TPCK-treated, Sigma-Aldrich); purchased Sigma-Aldrich
T1 sequence (P00760 24-246): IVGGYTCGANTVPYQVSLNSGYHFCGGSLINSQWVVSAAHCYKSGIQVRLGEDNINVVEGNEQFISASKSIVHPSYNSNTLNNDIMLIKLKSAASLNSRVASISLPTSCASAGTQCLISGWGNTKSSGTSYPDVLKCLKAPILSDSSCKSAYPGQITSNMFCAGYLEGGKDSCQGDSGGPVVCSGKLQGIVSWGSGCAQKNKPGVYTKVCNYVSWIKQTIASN

B1: trypsin: trypsin, TPCK-treated, Sigma-Aldrich, solution without additives (protein, UniProt P00760 24-246, looked up)
Serine protease 1: T1 sequence (P00760 24-246)
modifications: TPCK-treated
notes: trypsin, TPCK-treated, Sigma-Aldrich, solution without additives
B2: plasmin: plasmin, specific activity 3.2 units/mg, Sigma-Aldrich, solution without additives (protein, UniProt P00747 20-580; P00747 581-810, looked up)
Plasmin heavy chain A: EPLDDYVNTQGASLFSVTKKQLGAGSIEECAAKCEEDEEFTCRAFQYHSKEQQCVIMAENRKSSIIIRMRDVVLFEKKVYLSECKTGNGKNYRGTMSKTKNGITCQKWSSTSPHRPRFSPATHPSEGLEENYCRNPDNDPQGPWCYTTDPEKRYDYCDILECEEECMHCSGENYDGKISKTMSGLECQAWDSQSPHAHGYIPSKFPNKNLKKNYCRNPDRELRPWCFTTDPNKRWELCDIPRCTTPPPSSGPTYQCLKGTGENYRGNVAVTVSGHTCQHWSAQTPHTHNRTPENFPCKNLDENYCRNPDGKRAPWCHTTNSQVRWEYCKIPSCDSSPVSTEQLAPTAPPELTPVVQDCYHGDGQSYRGTSSTTTTGKKCQSWSSMTPHRHQKTPENYPNAGLTMNYCRNPDADKGPWCFTTDPSVRWEYCNLKKCSGTEASVVAPPPVVLLPDVETPSEEDCMFGNGKGYRGKRATTVTGTPCQDWAAQEPHRHSIFTPETNPRAGLEKNYCRNPDGDVGGPWCYTTNPRKLYDYCDVPQCAAPSFDCGKPQVEPKKCPGR
Plasmin light chain B: VVGGCVAHPHSWPWQVSLRTRFGMHFCGGTLISPEWVLTAAHCLEKSPRPSSYKVILGAHQEVNLEPHVQEIEVSRLFLEPTRKDIALLKLSSPAVITDKVIPACLPSPNYVVADRTECFITGWGETQGTFGAGLLKEAQLPVIENKVCNRYEFLNGRVQSTELCAGHLAGGTDSCQGDSGGPLVCFEKDKYILQGVTSWGLGCARPNKPGVYVRVSRFVTWIEGVMRNN
modifications: Plasmin

Key:
trypsin = biological target: T1, trypsin; test: Stability of trypsin solutions (TAME substrate, T 70%); assay type: physicochemical; conditions: 100 μg/ml trypsin in 10 mM HEPES, 0.13 M NaCl, pH 7.4, 37° C.
Protocol: The stabilization of solutions of trypsin in accordance with the invention was tested. The activity of trypsin was determined using tosyl arginine methyl ester (TAME) as substrate and measuring the absorbance change at 247 nm in a spectrophotometer. Solutions containing 100 μg/ml of trypsin (TPCK-treated, Sigma-Aldrich) in 10 mM HEPES and 0.13 M NaCl, pH 7.4, as well as stabilizers as indicated in Table 3 below were incubated at 37° C., and samples were taken out at various time intervals for activity determination.

plasmin = biological target: T2, plasmin (Homo sapiens, UniProt P00747); test: Stability of plasmin solutions (Chromozym TH chromogenic substrate, T 70%); assay type: physicochemical; conditions: 100 μg/ml plasmin in 10 mM HEPES, 0.13 M NaCl, pH 7.4, 37° C.
T2 construct: 100 μg/ml of plasmin (specific activity 3.2 units/mg, Sigma-Aldrich); purchased Sigma-Aldrich
Protocol: The stabilization of solutions of plasmin in accordance with the invention was tested. The activity of plasmin was determined using chromogenic peptide substrate Chromozym TH (Pentapharm, Switzerland) and measurement of absorbance change at 405 nm in a spectrophotometer. Solutions containing 100 μg/ml of plasmin (specific activity 3.2 units/mg, Sigma-Aldrich) in 10 mM HEPES and 0.13 M NaCl, pH 7.4, as well as stabilizers as indicated in Table 2 below were incubated at 37° C., and samples were taken out at various time intervals for activity determination.

Molecule	T 70% (trypsin) [h]	T 70% (plasmin) [h]
B1	0.6	
B2		3
